Source: publication PMC11912937

Target: FACT complex (SPT16/SSRP1), full length, untreated (human) (UniProt Q9Y5B9)
Experiment: SEC; analytical SEC of CCAN with different amounts of FACT; peak fractions on SDS-PAGE with TCE, tryptophan fluorescence of the bands normalised to the number of tryptophans and to SPT16

FACT complex (SPT16/SSRP1), full length, untreated (human), sequence (Q9Y5B9 whole entry, chain 1 of 2): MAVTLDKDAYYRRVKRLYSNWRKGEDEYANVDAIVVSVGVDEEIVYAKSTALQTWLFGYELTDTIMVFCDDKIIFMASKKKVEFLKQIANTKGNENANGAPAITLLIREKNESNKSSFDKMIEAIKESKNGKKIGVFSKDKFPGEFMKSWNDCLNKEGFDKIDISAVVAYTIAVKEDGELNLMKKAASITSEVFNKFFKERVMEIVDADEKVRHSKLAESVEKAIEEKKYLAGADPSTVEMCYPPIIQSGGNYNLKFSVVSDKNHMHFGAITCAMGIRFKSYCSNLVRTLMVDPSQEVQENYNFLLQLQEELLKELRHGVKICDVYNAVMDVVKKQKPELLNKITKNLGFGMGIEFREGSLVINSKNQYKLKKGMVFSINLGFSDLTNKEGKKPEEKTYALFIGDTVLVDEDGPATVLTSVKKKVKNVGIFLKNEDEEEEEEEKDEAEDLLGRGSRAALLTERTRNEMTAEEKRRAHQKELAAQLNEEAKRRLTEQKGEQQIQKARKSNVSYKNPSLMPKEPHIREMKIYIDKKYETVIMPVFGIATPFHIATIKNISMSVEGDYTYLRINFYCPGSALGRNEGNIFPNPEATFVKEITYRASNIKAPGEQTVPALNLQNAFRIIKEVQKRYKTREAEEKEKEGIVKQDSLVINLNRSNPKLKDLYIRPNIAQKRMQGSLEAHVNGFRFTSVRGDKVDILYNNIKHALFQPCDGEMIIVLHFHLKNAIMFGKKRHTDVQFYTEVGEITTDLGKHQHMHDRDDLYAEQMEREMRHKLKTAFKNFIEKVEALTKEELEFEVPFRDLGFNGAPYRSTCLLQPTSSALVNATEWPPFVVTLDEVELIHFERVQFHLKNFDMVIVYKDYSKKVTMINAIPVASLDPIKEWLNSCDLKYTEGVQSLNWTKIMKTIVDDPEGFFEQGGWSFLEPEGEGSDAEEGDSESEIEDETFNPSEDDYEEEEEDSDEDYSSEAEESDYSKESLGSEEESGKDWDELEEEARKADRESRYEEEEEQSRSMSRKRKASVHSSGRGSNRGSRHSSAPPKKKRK
FACT complex (SPT16/SSRP1), full length, untreated (human), sequence (Q08945 whole entry, chain 2 of 2, further chain): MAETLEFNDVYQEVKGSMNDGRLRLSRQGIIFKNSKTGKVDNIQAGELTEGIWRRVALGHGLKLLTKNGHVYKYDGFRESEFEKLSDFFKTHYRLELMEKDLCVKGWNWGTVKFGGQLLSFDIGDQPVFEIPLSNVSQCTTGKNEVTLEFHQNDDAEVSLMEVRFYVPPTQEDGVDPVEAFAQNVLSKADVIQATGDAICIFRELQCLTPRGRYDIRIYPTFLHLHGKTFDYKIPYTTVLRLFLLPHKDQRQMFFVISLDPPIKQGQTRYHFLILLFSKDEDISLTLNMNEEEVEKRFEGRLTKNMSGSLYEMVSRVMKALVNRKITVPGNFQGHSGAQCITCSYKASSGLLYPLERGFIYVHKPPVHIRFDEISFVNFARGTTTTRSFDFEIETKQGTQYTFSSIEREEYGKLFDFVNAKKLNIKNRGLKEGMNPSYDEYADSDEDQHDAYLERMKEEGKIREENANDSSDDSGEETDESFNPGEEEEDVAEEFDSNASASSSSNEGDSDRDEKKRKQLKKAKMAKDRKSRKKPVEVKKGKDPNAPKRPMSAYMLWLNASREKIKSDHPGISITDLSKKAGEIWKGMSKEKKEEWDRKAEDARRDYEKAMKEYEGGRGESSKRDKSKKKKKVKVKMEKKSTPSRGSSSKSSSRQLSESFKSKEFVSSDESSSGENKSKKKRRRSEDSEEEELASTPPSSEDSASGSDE

stoichiometry N (FACT per CCAN): 1
Substance: CCAN, 16-subunit constitutive centromere-associated network reconstituted with CENP-C^2–545 (from UniProt Q03188 2-545; Q9H3R5 1-247; Q92674 1-756; Q9BS16 1-269; Q9NSP4 1-180; Q8N0S6 1-344; Q96H22 1-339; Q9BU64 1-300; Q6IPU0 1-288; Q7L2Z9 1-268; Q71F23 1-418; Q13352 1-177; Q96BT3 1-561; Q5EE01 1-88; Q8N2Z9 1-138; A8MT69 1-81) (complex)
